Source: a protein production outcome set (Wang et al. 2014)

Assay: label from the status in PepcDB records

Row | Sequence | protein production
1 | EPAEIKIIREAYKKAFLFVNKGLNTDELGQKEEAKNYYKQGIGHLLRGISISSKESEHTGPGWESARQMQQKMKETLQNVRTRLEILEKGLATSLQNDLQEVP | not failed
2 | MNFPHMIPYNAPYYFVLLIAALLPMILTLAIKGTRWPWYQTLVTLVFLYISFGGEFWQQGVALIVYVIYQTLLTWGYAAYRKNKNAGWVFYLAVFLAILPLVWVKVSPFMTGKTTLLGFLGISYLTFKAVQVVMDLRDGVMKEYHPFRYIQFLLFFPTISSGPIDRYRRFEKDLKNPPSAEKYLDFLEKGIFYLFLGFLYKFIISHYLGGVFLPHVEKMALAQGGLSWWTVGYMYNYSLYLFFDFAGYSLLAVGTSYLMGYDTPMNFNKPFLSWNIKEFWNRWHMTLSFWFRDYIYMRLMFFLMKKKVFKSRIVTSNIGYFALFLIMGIWHGLTWFYIAYGLYHATLICVTDAWLRFKKKHKDKIPSNKFTHAFAVFLTFQAVCVSFLIFSGFLDKLWFK | not failed
3 | MTDIPAPAPAAEFWEARYRDTGRVWSGRPNELLVQEAGGLAPGTALDLGCGEGADAVWLASRGWRVTGVDISATALERAAGHADGAGVGDRVLWERHELGPSFPEGSFDLVSAHYLQSPVALDQQAVLRAAARAVAPGGTLLVVMHAGWPSWQTEPPFDAAFPTLDGVLAELALPEGEWSVETRRTARRPSVAPDGTEGFREDHVWRLKRAVFVE | failed
4 | MMDYGIDIWGNENFIIKNGKVCINYEKKPAIIDIVKELRDDGYKGPLLLRFPHLIQKQIENIYGNFNKARKEFGYKGGFNAVYPLKVNQYPGFVKNLVKLGKDYNYGLEAGSKAELLLAMAYNNEGAPITVNGFKDRELINIGFIAAEMGHNITLTIEGLNELEAIIDIAKERFKPKPNIGLRVRLHSAGVGIWAKSGGINSKFGLTSTELIEAVNLLKENKLLEQFTMIHFHLGSQITEIHPLKKALNEAGNIYTELRKMGAKNLKAINLGGGLAVEYSQFKNEKSRNYTLREYANDVVFILKNIAEQKKDLEPDIFIESGRFVAANHAVLIAPVLELFSQEYAENKLILKKQNPKLIDELYDLYKSIKPSNALEYLHDSIDHLESILTLFDLGYVDLQDRSNAEILTHLITKKAILLLGDKQNPADLLAIQDEVQERYLVNFSLFQSMPDFWGLEQNFPIMPLDRLDEEPTRSASIWDITCDSDGEISYSKDKPLFLHDVDVEKENYFLGFFLVGAYQEVLGMKHNLFTHPTEAIISINEKGYEVEGIIEAQSILDTLEDLDYDIHAIMDILNERISNSKLVNDKQKKHILGELYLFLNDNGYLKSIGVLEHHHHHH | not failed
5 | MERLAPAKVNLGLSVRFRREDGYHELHTLFAPFSLADRLVVEPVSSGLHFQGPYGRENLAYRAASLYLEAAGQPGGVRILLEKRIPEGAGLGGGSSDAAQVLLALQALYPAEVDLFALARTLGADVPFFLLGRGAEARGVGERLKPLALPPVPAVVFFPGLRVPTPLVYRAVRPEDFGPDLPVEAILEALARGEEPPYWNSLEGPAFRLFPELKEVRGRMRALGLRGVLMSGSGSAFFGLAEGPDHARRAAEALRAWGRAWAGTLGGGDAGSGPA | not failed
6 | MKQLLEFIPLILFFAVYKLVGVQAAAITLVLATILQLILVRILFKKLETSQWIVGLSVIIFGILTAYFDDLAFLKWKVTIINGLFAAVLLISQYVFHKPVVKMLLAKELSLPTQVWNRLNLGWAIFFIICMLINIIISQLFSDDTWATFKTFGFTGLSLVAVIITGIYLYPYIKKLENNNEQK | failed
7 | MPFAIGQRWLSESENALGLGVITALDQRTVTIYFPAADETRIYAMAQAPLSRIVFSKGETLSHQAGWQGEILDVQNMNGLLFYLVKNPQDEDVIVQERDISPIISFSQAKDRLFSAQI | failed
8 | MAEDFSVVVLASDLGIDARPFLTRSDDVDEQENWHDCPQYLGDEDFSDLDLLQFFTLQGLDRSGNRIFRIVGKYFPARVVSAERLKKYISQKISNQCPEGPLCLVYMHSTVQKDDNSPGITILRWIYEDLPSDIKDRLQLVYFIHPGLRSRLVIATLGRLLLSGGLYWKIKYVSRLQYLWEDIKKGEVEIPDFVKNHDNVLEHRPLTDYGIEPDPFQLSEVQSSSFSLNRYENRWVS | failed
9 | MEISFTRVALLAAALFFVGCDQKPQPAKTHATEVTVLEGKTMGTFWRASIPGIDAKRSAELKEKIQTQLDADDQLLSTYKKDSALMRFNDSQSLSPWPVSEAMADIVTTSLRIGAKTDGAMDITVGPLVNLWGFGPEQQPVQIPSQEQIDAMKAKTGLQHLTVINQSHQQYLQKDLPDLYVDLSTVGEGYAADHLARLMEQEGISRYLVSVGGALNSRGMNGEGLPWRVAIQKPTDKENAVQAVVDINGHGISTSGSYRNYYELDGKRLSHVIDPQTGRPIEHNLVSVTVIAPTALEADAWDTGLMVLGPEKAKEVVRREGLAVYMITKEGDSFKTWMSPQFKSFLVSEKN | not failed
10 | ANLYWFRADWFERPDLKKKFKDKYGYELGVPVNWSAYEDIAKFFSEDVKEIDGKKVFGHMDYGKKDPSLGWRFTDAWFSMAGSGDKGLPNGLPVDEWGIRVEDCHPVGSSITRGGDTNGPAAVFATQKYIDWLKAYAPPEAAGMTFSESGPVPSQGNVAQQIFWYTAFTADMTKPGLPVMNADGTPKWRMAPSPKGPYWKEGMKLGYQDVGSWTFLKSSDEKKRLAAWLYAQFVTSKSVSLKKTIVGLTPIRESDINS | failed
11 | MCYTGDMEDVKHPRLTRRGRIYWFRAKVPADLRSHYAPKTEIIYSLKTSDPREALVRVRIASVKADQEFEVARRIPKEEVRTSLSDDEAERLVAIYYQVRLEEDEEIRIGGKQEADLYLGVKAQLEALGIGHANYTNEEAVAEYGLSQREYQKNQETLEFMEPLYREALSTGNTEIIHDELDDILEANSIKLDRTSSQYRKLAFSILKATVKVLDVEKRRNSGEPIDTPPEPPPLFKPAVTAVPANSLRLSEVFERWKVERKPAKRSLMEWDTAIRRFTALYGDKPVESITKAEVVEFKDSLLQQGKAAATVLKQVGAIKSTLQYAVDNGKLSVNPATGVKVAGKRASEVRRLPYDAEDLKAIFSSPVFTCGDRPLAGSGEASFWLPLLALFTGARLNEIGQILVSDVRELDGIHYLDLNTEGEGKSLKNEGSRRKVPLHPEIIRLGFLDYVRKQGESLGSDSRVFDKLEPNSNGVLTANFSKWWGRYARENGIAKGQKVFHSFRHSFKDACRESSLPQDIHDALTGHSPNNVGGRYGQGFTVRRLGEEMAKLSYPGLDLSGLMKP | failed
12 | GVPPSQGDLEYQMSTTARAKRVREAMCPGVSGEGQLALLATQVEGQATNLQRLAEPSQLLKSAIVHLINYQDDAELVTRALPELTKLLNDEDPVVVTKAAMIVNQLSKKEASRRALMGSPQLVAAVVRTMQNTSDLDTARCTTSILHNLSHHREGLLAIFKSGGIPALVRMLSSPVESVLFYAITTLHNLLLYQEGAKMACAGRRAQKMVPLLNKNNPKFLAITTDCLQLLAYGNQESKLIILANGGPQALVQIMRNYSYEKLLWTTSRVLKVLSVCPSNKPAIVEAGGMQALGKHLTSNSPRLVQNCLWTLRNLSDVATKQEGLESVLKILVNQLSVDDVNVLTCATGTLSNLTCNNSKNKTLVTQNSGVEALIHAILRAGDKDDITEPAVCALRHLTSRHPEAEMAQNSVRLNYGIPAIVKLLNQPNQWPLVKATIGLIRNLALCPANHAPLQEAAVIPRLVQLLVKAHQDAQRHVAAGTQQPYTDGVRMEEIVEGCTGALHILARDPMNRMEIFRLNTIPLFVQLLYSSVENIQRVAAGVLCEL | failed
13 | MRMRYQGRLSDWNDHKGFGFVTPHGGGDRAFVHISAFAQQTRRPRDGEIITYAIERDAHKRLNATQVRWADRTTAARTEQRRSGLPRKTLAAVSMLALAAATLMHVLPVIVPLWYAAASLVTLLIYAMDKSAAQRNQWRTPESSLHLLALIGGWPGALLAQEIHRHKCSKAAFQLTFWLTVALNVSALVLAVTETDLMATLPAVFD | failed
14 | MPFKEYDHDFIDKNKKASSSVRLALLLSVLIIIFNLLFFKHRDFQEQLHNNPGSYTDLIALVFLFFILSCTSKISLNHTSALSIRLGLHVWICSATFDFMDEFIYQPKLVGYYVEDMLRIIGMFGVGFGVYTLIQQINNKYVEARIQSFSDELTQLPNRRFFINELKKLEAKTPYLFIIDIDNFKVINDKYGHTKGDEILSKFGHILSRFDNSEVVATRIGGEEFAIILYAGTQDRAEKLAREVLKNANKIIIKNMHHLSVSIGAGKKQPQEPTEHFMKRVDVALYQAKNTGKGKVEWALEPKEKTQ | failed
15 | MEKFMYSLGVSKKDKIYKDLLKIAIPTAIEFFLFNFISLTDNAMVAYLGDYPVAGVSLANKFFELFVTIGFSMAGAYNIIATRQYNQGDFKSFRNTFFISILTIILFSFPFILISIVNPFFLLRLISNDERAVYYGAAYLNIAIFSFVFAIIKGLIANALKVVEIVKFQVYISVFSVLLNFVFNYIFIFVFHMGVVGAAIATTVIRTLELIVYLVCTAFNKNSILHFKLDDLNINIKPFAQLIKFFIPILLNEFAWFFGYLVLTSIFIGIDTHKYAAYSISFSIYFIIFNIIHSFCISLNIMMGYEMHNSKKEIMKVAIYLSKIGLKLAFLTSFVLFIFSFFAPYIFYTLKYSHLIGIILRYSSVSAFFMALAFQYLFGFFRAGASPSFGAIMEGSVTFVYTIPIAFVLANYTNLPFEIIVFIPSLEDAIKLVVSLPYFYSERWIKSV | failed
16 | MRRQAEAYKAQLAAMVESSDDAIIVKDLNAIITSWNAGAERIFGYQASEITGSSILALIPPERHEEEKGIMSLVKSGNRVDHFETMWWGKGKKPIDVSVTTSAVKDSDGNIVGISQIARDLEHHHHHH | failed
17 | MVTAAQPRSPSPSPSSTAAAGQVTRRVPAVRHLGPNWYACVMGTAIVGTAGAALPGHVAGLRAACTAVWALSLVLLVVLLTARSLHWLHHRDQARAHLLDPSAAPFYGCLSMALLAVGGGALALGRDWIGTPAAVALDTVLFTAGTVIGLAAAVAVPYLMAVRHRVEPGQASPVWLLPLVAPMVSAAVGPLLVPHLPAGQPRETLLLACVAMFGMSLFATLVTLPVVFGRLLTGGPLPLALTPSLFLVLGPLGQSTTAVGKFADVAPGVVPGPYAEGFAVFAVLYGVPVTGFALMWLALAAAHVVRARRAGMRFSMTWWSFTFPVGTCVTGAEALARETGLVVYDGLTVALYALLVAAWAVAAVHTARGLFSGVLLAGPRPAPGAPRPATARTT | failed
18 | MAIGERIHFFRLLRGMTQKYLGTAVGFPERSADVRLAQYETGSRKPKADLTAALAQVLDVSPQALDVPDIDSQIGLMHTLFTLEDVYGLTISEADGEVCLKVNKDKGKKAYELLQMLYVWKEQADKLSAGEISKDDYDRWRYYYPKYDTTQLWAKVPSQQLSDTLVEAFQDKLKKDELEHHHHHH | failed
19 | MKIIIVGGGVTGSELARRLIRKKHDVVLIERDEETARHAANRLDCMVVQAAGNDTQILLDAGIKKAEAMIAVTDSDELNMIICGIADSLAPQVIKIARVRNEDYVKALNFSEERTLGINALVYPDEEAALAVIQAIEHGAVSDILSFENSSYELSRFNVCEKSTLDGLAVFDIRKYVDIPFIVVSVEQNGKNRIPSGDTILTAGTRVSILTKPEHIKRFYELSGFETQEFKKIALVGMGRIGKSIAEYLLKNSKGKSFLSKLLPINLNQKWKISIIETNDKKAKEVAAEFPEASIYKADVTDESFVDEIGLDSFDLVICTTPNYEFNMIACAYLKTLGVYKTISLVQSAVLENVAYKIGVDVAVSFKDVVVDSIMSHLVSENVTSVHTMGDGKLEIIELQVSEKSPVLGQKLKDISQHGVYLVLLVTDENGEQIPTGDTEVKAGYKIVFIVKSSRSDEIIKIFGGN | failed
20 | MPRSQADSALAEAERHLAAGRSQQAREAFRRARLFFHRCADTDGEAIVLVRLGEAELAAGHLASAKEALSDALALLSHETDPSARADALHLMGSLKNAEKNAPERDRLWAEAVSAHRDHGNKAGEARVLRDQAQVAKATGKDDLAFDLFSRAHRLYADLGHSFHEAMILLEIGQLHRAQGRADLAHDALERAADLFRVNGDTLDEGRTRLTLARLLRDLGDKETALRDLTLCAKLFGANGHLGGQAEALIDLARLEAAKAPKAALKMLHQARALAARSGIPSLQTQAASEIARLDQAALKDTP | failed
